According to patent US20250340655A1, “EPHA2-TARGETING ANTIBODIES AND THEIR APPLICATIONS IN CANCER TREATMENT” (TAIPEI MEDICAL UNIVERSITY, priority 2022, published 2025):
Each block holds one molecule with its values, some of them ahead of it.

Columns and labels:
HCT116, SW480 and SW460 = test: MTS growth inhibition, colon cancer cells; format: cell-based; details: 3 days (FIG. 18C)
Description: The growth inhibitory effect of hSD5-ADC on the three strains of colon cancer cells were tested under different concentrations. At indicated concentrations interacted with the cancer cells for 3 days, and the effects on the growth of cancer cells were observed by MTS assay. (FIG. 18C)

[1] = test system: EphA2pep_P1, EphA2pep_P2, EphA2pep_PIP2 synthetic peptides; test: Peptide ELISA for epitope definition; format: binding
Excerpt: We used peptide enzyme-linked immunosorbent assay (ELISA) to identify the designed epitope on EphA2; the BSA-conjugated peptides EphA2pep_P1 (BSA-[…]) and EphA2pep_P2 (BSA-[…]) each represent the two segments of the linear epitope designed on EphA2. EphA2pep_PIP2 (BSA-[…]) represents the two linear epitope sequences connected by a linker. These peptides were synthesized and conjugated with BSA (Kelowna International Scientific). The BSA-conjugated peptides were individually coated on a 96-well microplate at 4° C. overnight. After the wells were blocked with 3% BSA, IgG hSD5 was added and incubated. Next, an HRP-conjugated anti-HA tag antibody (Cell Signaling Technology) was used to detect bound scFv. Finally, the TMB substrate was added for development, and the reaction was stopped by adding 1 N HCl. Absorbance was measured by determining the OD at 450 nm. A dot blot assay was used to detect the binding of IgG hSD5 to the synthesized peptides; […] of individual peptides (1 mg/mL; in triplicate) were dropped on the NC membrane and maintained at RT for complete absorption. Blocking with 3% BSA was performed at RT for 1 h. Then, IgG hSD5 (10 μg/mL) was added, and the reaction was allowed to proceed for 1 h at RT. After the membrane was washed, the HRP-conjugated anti-HA tag antibody was added, and the reaction was allowed to proceed for 1 h at RT. Lastly, DAB was used to initiate the coloration reaction.
To determine whether the antibody hSD5 can recognize two antigen fragments simultaneously, peptide synthesis of the two antigen fragments was performed to test the binding reaction of antibody IgG hSD5. The ELISA was used to test the binding reactivity of the antibody hSD5 to synthetic peptides. The two short peptides located on the designed activation site of EphA2 are EphA2pep_P1 and EphA2pep_P2, respectively. The long peptide formed by linking the two short peptides is EphA2pep_PIP2. NCIpep and NC2pep are two irrelevant peptides as the negative control. EphA2 ECD is a recombinant EphA2 extracellular domain protein.

[2] = test system: hTERT HPNE, AsPC-1, BxPc-3, and Mia PaCa-2; test: Growth inhibitory response of pancreatic cell lines to serially diluted hSD5-ADC; format: cell-based, human; details: serial dilution (FIGS. 11A-11D)
[3] = target: T1, endogenous EphA2 molecules on the four brain tumor cell lines (GBM8901, LN229, T98G and U87MG) (Homo sapiens, UniProt P29317); test: Flow cytometry binding on brain tumor cell lines; details: flow cytometry (FIG. 16B)
T1 construct: identifying endogenous EphA2 molecules on the four strains of brain tumor cell lines; endogenous in cells; host or cells: GBM8901, LN229, T98G, U87MG
Excerpt: Flow cytometry was used to analyze the response of hSD5 IgG in identifying endogenous EphA2 molecules on the four strains of brain tumor cell lines. PC represents the use of commercial Ab to determine the expression of EphA2 on cancer cells; NC represents the control group with irreverent of the isotype IgG1 antibody. (FIG. 16B)
The hSD5 was used to identify endogenous EphA2 molecules on the four brain tumor cell lines by flow cytometry analysis. PC uses a commercial anti-EphA2 antibody, and NC is the control group with irreverent of the isotype IgG1.

BxPc-3 cells = test: Antibody internalization (endocytosis) assay; format: cell-based, human; details: BxPc-3, 1 h, 37° C. vs 4° C. (FIG. 6B)
Description: BxPc-3 cells were seeded on cover glasses placed in the wells of a 6-well culture plate. The BxPc-3 seeded glass slides were incubated with ephrin A1-Fc (Sino Biological) or IgG hSD5 for 1 h at 37° C. or 4° C. After washing with PBS, the cells were fixed with 100% ice methanol for 10 min. Next, the cells were stained with an FITC-conjugated anti-human Fc antibody and were subsequently mounted with ProLong Diamond Antifade Mountant comprising 4′,6-diamidino-2-phenylindole for nuclear counterstaining (Invitrogen). The cells were imaged using a confocal microscope (Leica Microsystems).

[4] = target: T2, EphA4 overexpressed on 293T cells (UniProt P54764 20-986, limits assumed); test: flow cytometry on 293T cells overexpressing EphA1-A8
T2 construct: whole, on cells
Description: To detect the binding specificity of scFv, 293T cells were transformed with EphA1-A8 plasmids individually for overexpression of different EphA molecules. The cell line was freshly prepared and washed with FACS buffer (2% FBS in PBS). The cells were seeded at 1×10⁵ cells/well into a 96-well Ubottom plate and incubated with scFv for 1 h at 4° C. After the plate was washed with FACS buffer, the anti-hemagglutinin (HA) antibody was added for scFv binding detection (scFv was fused with a HA tag) and subsequently developed using an FITC-conjugated secondary antibody. Finally, the cell binding signal was analyzed using a FACS can flow cytometer.

T1 sequence (P29317 24-976, stated change not applied): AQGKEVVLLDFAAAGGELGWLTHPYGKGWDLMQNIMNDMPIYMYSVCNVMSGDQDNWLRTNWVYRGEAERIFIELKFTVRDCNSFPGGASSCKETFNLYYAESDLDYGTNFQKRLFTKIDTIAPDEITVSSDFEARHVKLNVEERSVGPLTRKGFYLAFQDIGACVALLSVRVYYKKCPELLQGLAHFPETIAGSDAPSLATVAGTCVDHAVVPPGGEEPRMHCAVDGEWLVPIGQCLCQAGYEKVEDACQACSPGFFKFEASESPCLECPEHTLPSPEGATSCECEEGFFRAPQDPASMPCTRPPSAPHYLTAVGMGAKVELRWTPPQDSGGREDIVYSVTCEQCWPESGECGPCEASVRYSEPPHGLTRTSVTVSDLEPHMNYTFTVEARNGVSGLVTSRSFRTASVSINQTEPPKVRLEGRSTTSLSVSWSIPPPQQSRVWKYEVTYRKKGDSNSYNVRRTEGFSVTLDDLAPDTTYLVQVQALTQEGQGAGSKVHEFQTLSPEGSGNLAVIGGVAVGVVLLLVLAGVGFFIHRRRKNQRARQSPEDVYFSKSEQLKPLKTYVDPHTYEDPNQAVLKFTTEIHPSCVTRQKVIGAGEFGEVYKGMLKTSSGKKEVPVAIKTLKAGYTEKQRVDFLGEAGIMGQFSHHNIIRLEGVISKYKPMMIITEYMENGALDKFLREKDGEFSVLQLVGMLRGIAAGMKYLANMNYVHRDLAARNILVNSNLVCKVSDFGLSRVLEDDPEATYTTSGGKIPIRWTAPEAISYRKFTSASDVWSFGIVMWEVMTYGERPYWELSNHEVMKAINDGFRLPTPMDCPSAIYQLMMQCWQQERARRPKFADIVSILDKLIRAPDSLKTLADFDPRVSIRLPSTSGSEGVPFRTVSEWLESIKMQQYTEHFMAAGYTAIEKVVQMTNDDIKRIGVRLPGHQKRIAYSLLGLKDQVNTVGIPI
T2 sequence (P54764 20-986 limits assumed): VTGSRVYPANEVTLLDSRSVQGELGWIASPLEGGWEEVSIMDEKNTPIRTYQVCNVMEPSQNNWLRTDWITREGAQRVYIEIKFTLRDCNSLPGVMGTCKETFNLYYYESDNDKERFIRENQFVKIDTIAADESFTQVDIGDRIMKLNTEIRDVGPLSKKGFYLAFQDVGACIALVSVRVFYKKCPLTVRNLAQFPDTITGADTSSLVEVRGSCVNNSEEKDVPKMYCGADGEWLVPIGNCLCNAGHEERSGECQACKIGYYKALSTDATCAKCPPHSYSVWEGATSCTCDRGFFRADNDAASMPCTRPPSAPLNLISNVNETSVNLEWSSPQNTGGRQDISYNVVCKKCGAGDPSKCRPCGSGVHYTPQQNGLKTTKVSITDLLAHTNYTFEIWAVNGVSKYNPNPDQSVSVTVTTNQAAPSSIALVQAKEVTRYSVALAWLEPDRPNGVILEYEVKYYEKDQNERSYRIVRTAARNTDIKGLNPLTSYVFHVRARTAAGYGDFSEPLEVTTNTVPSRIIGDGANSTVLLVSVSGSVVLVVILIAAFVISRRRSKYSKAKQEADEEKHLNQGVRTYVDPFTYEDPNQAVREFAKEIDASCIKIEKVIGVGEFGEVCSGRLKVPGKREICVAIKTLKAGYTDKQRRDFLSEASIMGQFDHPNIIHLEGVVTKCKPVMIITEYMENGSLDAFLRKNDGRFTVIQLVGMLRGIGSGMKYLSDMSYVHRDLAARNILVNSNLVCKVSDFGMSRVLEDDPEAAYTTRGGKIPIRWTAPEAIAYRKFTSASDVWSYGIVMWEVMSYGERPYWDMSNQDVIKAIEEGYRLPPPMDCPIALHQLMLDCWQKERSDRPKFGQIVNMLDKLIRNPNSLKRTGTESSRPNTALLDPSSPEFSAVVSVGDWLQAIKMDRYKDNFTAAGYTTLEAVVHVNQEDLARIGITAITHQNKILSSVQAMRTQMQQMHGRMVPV

binding to long peptide EphA2pep_PIP2 ([1]; peptide ELISA (FIG. 9A)): exhibited a binding response
binding to short peptides EphA2pep_P1 and EphA2pep_P2 ([1]; peptide ELISA (FIG. 9A)): individually recognized
cross-binding to two irrelevant peptides ([1]; peptide ELISA, NC peptides (FIG. 9A)): did not exhibit a cross-binding reaction
binding response to EphA2 molecules on brain cancer cells [3]: significant binding response
B1: IgG hSD5: complete humanized anti-EphA2 IgG (IgG1) of hSD5 (antibody, V domains shown)
VH: QVQLVESGGGLVQPGGSLRLSCAASGFTFSDYGMGWVRQAPGKGLEWVAGISAAGSFTPYGAAVKGRFTISRDNSKNTVYLQMNSLRAEDTAVYYCARIPSGYRAGEIYTWGQGTLVTVSS
VL: LTQPPSVSVSPGQTVRITCSGSSGSYGWYQQKSPGQAPVTLIYDNDKRPSGIPERFSGSSSGSTSTLTISGVQAEDEADYYCGSADSSTYVGMFGGGTKLTVL
growth inhibitory response of colon cancer cells (HCT116, SW480 and SW460): does not provide ideal inhibition effect
interaction with EphA2pep_P1 compared with EphA2pep_P2 ([1]; peptide ELISA (FIG. 9A)): stronger
growth inhibitory response of pancreatic cell lines [2]: does not provide ideal inhibition effect
endocytosis after targeting EphA2 (BxPc-3 cells): endocytosed from the cell membrane into the cytoplasm

binding result [4]: no binding
B2: Humanized scFv hSD5 (scFv)
scFv: LTQPPSVSVSPGQTVRITCSGSSGSYGWYQQKSPGQAPVTLIYDNDKRPSGIPERFSGSSSGSTSTLTISGVQAEDEADYYCGSADSSTYVGMFGGGTKLTVLGQSSRSSQVQLVESGGGLVQPGGSLRLSCAASGFTFSDYGMGWVRQAPGKGLEWVAGISAAGSFTPYGAAVKGRFTISRDNSKNTVYLQMNSLRAEDTAVYYCARIPSGYRAGEIYTWGQGTLVTVSS
notes: also called hSD5 scFv; Humanized scFv hSDS
